Data on eight molecules can be found in patent US20160311917A1 (Novartis, published 2016).

B1: M16 scFv (human anti-mesothelin scFv, soluble, His-tagged) (scFv)
scFv: EVQLVESGGGLVQPGRSLRLSCAASGFTFDDYAMHWVRQAPGKGLEWVSGISWNSGSTGYADSVKGRFTISRDNAKNSLYLQMNSLRAEDTALYYCAKDSSSWYGGGSAFDIWGQGTMVTVSSGGGGSGGGGSGGGGSSSELTQEPAVSVALGQTVRITCQGDSLRSYYASWYQQKPGQAPVLVIFGRSRRPSGIPDRFSGSSSGNTASLIITGAQAEDEADYYCNSRDNTANHYVFGTGTKLTVLGSHHHHHHHH
notes: also called XS87-99RD
B2: M17 scFv (human anti-mesothelin scFv, soluble, His-tagged) (scFv)
scFv: EVQLVESGGGLVQPGRSLRLSCAASGFTFDDYAMHWVRQAPGKGLEWVSGISWNSGSTGYADSVKGRFTISRDNAKNSLYLQMNSLRAEDTALYYCAKDSSSWYGGGSAFDIWGQGTMVTVSSGGGGSGGGGSGGGGSSSELTQDPAVSVALGQTVRITCQGDSLRSYYASWYQQKPGQAPVLVIYGKNNRPSGIPDRFSGSSSGNTASLTITGAQAEDEADYYCNSRGSSGNHYVFGTGTKVTVLGSHHHHHHHH
notes: also called NS89-94MD
B3: M14 scFv (human anti-mesothelin scFv, soluble, His-tagged) (scFv)
scFv: QVQLVQSGAEVRAPGASVKISCKASGFTFRGYYIHWVRQAPGQGLEWMGIINPSGGSRAYAQKFQGRVTMTRDTSTSTVYMELSSLRSDDTAMYYCARTASCGGDCYYLDYWGQGTLVTVSSGGGGSGGGGSGGGGSGGGGSDIQMTQSPPTLSASVGDRVTITCRASENVNIWLAWYQQKPGKAPKLLIYKSSSLASGVPSRFSGSGSGAEFTLTISSLQPDDFATYYCQQYQSYPLTFGGGTKVDIKGSHHHHHHHH
notes: also called BS83-95ID
B4: M5 scFv (human anti-mesothelin scFv, soluble, His-tagged) (scFv)
scFv: QVQLVQSGAEVEKPGASVKVSCKASGYTFTDYYMHWVRQAPGQGLEWMGWINPNSGGTNYAQKFQGRVTMTRDTSISTAYMELSRLRSDDTAVYYCASGWDFDYWGQGTLVTVSSGGGGSGGGGSGGGGSGGGGSDIVMTQSPSSLSASVGDRVTITCRASQSIRYYLSWYQQKPGKAPKLLIYTASILQNGVPSRFSGSGSGTDFTLTISSLQPEDFATYYCLQTYTTPDFGPGTKVEIKGSHHHHHHHH
notes: also called scFv M5; XP31-20LC
B5: M12 scFv (human anti-mesothelin scFv, soluble, His-tagged) (scFv)
scFv: QVQLVQSGAEVKKPGASVKVSCKASGYTFTGYYMHWVRQAPGQGLEWMGRINPNSGGTNYAQKFQGRVTMTTDTSTSTAYMELRSLRSDDTAVYYCARTTTSYAFDIWGQGTMVTVSSGGGGSGGGGSGGGGSGGGGSDIQLTQSPSTLSASVGDRVTITCRASQSISTWLAWYQQKPGKAPNLLIYKASTLESGVPSRFSGSGSGTEFTLTISSLQPDDFATYYCQQYNTYSPYTFGQGTKLEIKGSHHHHHHHH
notes: also called DE12-14RD
B6: M23 scFv (human anti-mesothelin scFv, soluble, His-tagged) (scFv)
scFv: QVQLQQSGAEVKKPGASVKVSCKASGYTFTNYYMHWVRQAPGQGLEWMGIINPSGGYTTYAQKFQGRLTMTRDTSTSTVYMELSSLRSEDTAVYYCARIRSCGGDCYYFDNWGQGTLVTVSSGGGGSGGGGSGGGGSGGGGSDIQLTQSPSTLSASVGDRVTITCRASENVNIWLAWYQQKPGKAPKLLIYKSSSLASGVPSRFSGSGSGAEFTLTISSLQPDDFATYYCQQYQSYPLTFGGGTKVDIKGSHHHHHHHH
notes: also called XH66-84HE
B7: M11 scFv (human anti-mesothelin scFv, soluble, His-tagged) (scFv)
scFv: B4 scFv with V5Q, E12K, D31G, K63N, S84R, V138R
notes: also called NE10-19WD
B8: M21 scFv (human anti-mesothelin scFv, soluble, His-tagged) (scFv)
scFv: QVQLVQSWAEVKKPGASVKVSCKASGYTFTSYYMHWVRQAPGQGLEWMGIINPSGGSTSYAQKFQGRVTMTRDTSTSTVYMELSNLRSEDTAVYYCARSPRVTTGYFDYWGQGTLVTVSSGGGGSGGGGSGGGGSGGGGSDIQLTQSPSTLSASVGDRVTITCRASQSISSWLAWYQQKPGKAPKLLIYKASSLESGVPSRFSGSGSGTEFTLTISSLQPDDFATYYCQQYSSYPLTFGGGTRLEIKGSHHHHHHHH
notes: also called MM21; ZS95-03QD

Positions count from the first letter of the chain named.

One assay has as its target T1, recombinant human biotinylated mesothelin extracellular domain with C-terminal Avi-Tag (human, site selectively biotinylated in vitro with BirA enzyme at the C-terminal Avi-Tag).
T1 construct: Produced in HEK293F cells; as printed it includes a His tag and the Avi-Tag; Immobilised on a streptavidin sensor chip for SPR; also called human MSLN ECD; human mesothelin ECD
T1 chain: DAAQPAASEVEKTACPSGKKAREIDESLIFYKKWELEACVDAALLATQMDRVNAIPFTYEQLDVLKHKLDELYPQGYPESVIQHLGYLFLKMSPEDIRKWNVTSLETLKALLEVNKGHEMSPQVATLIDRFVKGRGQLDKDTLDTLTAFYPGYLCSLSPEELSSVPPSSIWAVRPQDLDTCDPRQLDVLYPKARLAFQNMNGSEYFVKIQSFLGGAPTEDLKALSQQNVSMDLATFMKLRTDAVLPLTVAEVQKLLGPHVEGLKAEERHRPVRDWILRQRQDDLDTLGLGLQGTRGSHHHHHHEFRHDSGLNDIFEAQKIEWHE
Put plainly: SPR, Biacore T200; biotinylated mesothelin ECD on streptavidin chip, scFv injected; 1:1 binding model. (In general: SPR reads the build-up and loss of mass on a sensor chip optically.)
Protocol: (§1) Binding affinity of purified scFvs was measured on a Biacore T200 system. Briefly, recombinant human biotinylated mesothelin ECD was immobilized on a streptavidin (SA) sensor chip surface at a density of 150 RU. Purified scFv was injected over the chip under constant flow rate at three-fold serial dilutions. Association and dissociation rates of the protein complex were monitored for 270 seconds and 400 seconds, respectively. Double referencing was performed against a blank immobilized flow cell and a buffer blank. Affinity was determined with a Langmuir 1:1 binding model when possible, for those scFVs where accurate fitting was not possible due to fast on and off rates, the steady state model was used.
As a reminder, the Kd is a measure of binding affinity in units of concentration. What is called koff is the rate constant with which the complex falls apart. The term kon denotes a measure of how fast the partners come together. As for B1, the Kd worked out at 22.7 nM, the koff worked out at 0.00395 s⁻¹ and the kon amounted to 174000 M⁻¹ s⁻¹.

Consider B2, for which the Kd was 27.8 nM, the koff turned out to be 0.0145 s⁻¹ and the kon was 522000 M⁻¹ s⁻¹.

As for B3, the Kd is 0.9 nM, the koff came to 0.00251 s⁻¹ and the kon is 2.75e+06 M⁻¹ s⁻¹.

In the case of B4, the Kd is 26.9 nM, the koff amounted to 0.00113 s⁻¹ and the kon is 42000 M⁻¹ s⁻¹.

In the next assay the target is T2, Glycosylation Deficient Mesothelin (296-588; N388Q, N496Q, N523Q) (human).
T2 construct: It already carries N388Q, N496Q and N523Q; also called hMSLN296-588; human mesothelin(296-588)
T2 chain: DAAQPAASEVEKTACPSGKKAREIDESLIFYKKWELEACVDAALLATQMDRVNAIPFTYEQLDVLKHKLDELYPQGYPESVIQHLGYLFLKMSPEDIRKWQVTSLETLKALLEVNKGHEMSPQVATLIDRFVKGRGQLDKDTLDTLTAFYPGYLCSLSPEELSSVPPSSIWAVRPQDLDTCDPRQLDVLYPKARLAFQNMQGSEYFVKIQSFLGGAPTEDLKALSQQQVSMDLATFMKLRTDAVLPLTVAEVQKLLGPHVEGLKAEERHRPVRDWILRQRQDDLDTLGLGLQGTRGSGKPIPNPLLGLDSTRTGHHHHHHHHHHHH
Put plainly: Hydrogen-deuterium exchange mass spectrometry: difference in deuterium uptake of the co-expressed complex against unbound mesothelin, peptides 456-586.
Protocol: For hMSLN₂₉₆₋₅₈₈ deuterium labeling experiments in the absence of antibody, 400 pmol of hMSLN₂₉₆₋₅₈₈, volume of 6.9 was diluted using 100 μl of the deuterium buffer for 15 minutes at 4° C. The labeling reaction was then quenched with 100 μl of chilled quench buffer at 2° C. for three minutes followed by injected onto the LC-MS system for automated pepsin digestion and peptide analysis.
The labeling reaction was then quenched with 100 μl of chilled quench buffer at 2° C. for three minutes followed by injected onto the LC-MS system for automated pepsin digestion and peptide analysis. […] The labeling reaction was then quenched with 100 μl of chilled quench buffer at 2° C. for three minutes, and then injected onto the LC-MS system for automated pepsin digestion and peptide analysis.
All deuterium exchange experiments were quenched using 0.5 M TCEP and 3 M urea (pH=2.6). After quenching, the exchanged antigen was subjected to on-line pepsin digestion using a Poroszyme Immobilized Pepsin column (2.1×30 mm) at 12° C. followed by trapping on a Waters Vanguard HSS T3 trapping column.
For B4, the binding result is given as “binds”.

The target of a further assay is T1, recombinant human biotinylated …. Put plainly: SPR, Biacore T200; biotinylated mesothelin ECD on streptavidin chip, scFv injected; steady state affinity model.
Protocol: as §1
With B5, the Kd amounted to 307 nM.

As for B6, the Kd came out at 114 nM.

For the molecule B7, the Kd came to 64.7 nM.

In the case of B8, the Kd is 110 nM.
